Measured values taken from the DeepSol protein solubility set.

experiment: soluble on expression in E. coli; label from the status in PepcDB or PDB records

Sequence | soluble on expression in E. coli
MSYDANLTKYMDFLVKKTKNAAEPTTFKEIFDEYSRLDPDRSTYSMCYDKFHHRLAPIMNELNTYSIRERVRVMLTMGGKVSKDFLTTIEKLGTVQLDEKRRILKYASKDGKFKIEGARSEFMDFLIQQTRDAVRPMTSTSIAKEFCRIKDRQVSVDTFNKKFRRNLAPNMSRWSSYLLGDRIRMMFVLKGTVRTDFLAEIEKSGTVQLDDQRRIVRYASNDGMIELEEKTSGVKRRRSTKSSNTPTKRREITENELSDTDDVEVMEIVDGYVEQESASFDFEELVNREASYNLDQGHLYREILEAPLLENRDSKFNPFNAKSGRQAEVQRSGTFLNESEGTSTNAQESFVFRGFLKQEPVFEQFHIQNMSNNLVNLPIPPEIEETPVQEGHHVEPSGITGSDGIRLHKFLNSLELMLTSLESDTLNDLMQEIEEIRRRTDEILPSELVITTLQTFFLGITRKFRPETSAPSKSAKECLRIFKYALLWLKNPLLYDLQKRVQDEIENHEADGKVLLIADVQQGIRNILFTVV | not soluble
MSYNEKSSKSIHEKRAIAKYAASLIEDGDCIFVDAGTTTYELIDYLEGKDILVVSNGLSHIDTLIQKNIKCYVIGGNIKISTKAITGCDALMCLSKFRFDKCFIGANGVHHTYGLTTPDTEEAILKECAINNSRKAYVLADDSKFGEISTIKFSDINKCVIITNEKPKDLEHHHHHH | not soluble
MSYNLLGFLQRSSNFQSQKLLWQLNGRLEYCLKDRMNFDIPEEIKQLQQFQKEDAALTIYEMLQNIFAIFRQDSSSTGWNETIVENLLANVYHQINHLKTVLEEKLEKEDFTRGKLMSSLHLKRYYGRILHYLKAKEYSHCAWTIVRVEILRNFYFINRLTGYLRN | not soluble
MSYTAHEAQAALAPQFDAYSKAIEGSDWDTVATFYHPNGVIVQKGKEAFYGKDAIKAELLKFSEATGRSTSSFSNQKYEGAGDYLIITADFSSETEKAGTVKGKFVQIWKKEGDRHLIYHDEFEVNP | not soluble
MSYYHHHHHHDYDIPTTENLTFQGAMEPTSSLNRGDRKKGSSLVTGSEVQSQSNGASCFITTDSEKSLVSRQASQVEQIELRTYVFLDSLQPQLAAYMGTVSRGFLPIPGDSCLWMEVSPGMAVHRVTDIALKASNVRLGQMIVERAFGSLALYHKDQSTVLHSGDVVLDAIGSEVRKRTKPSTSWTEVICAITPDHAVLINRQNRSGSMIQSGMSMFILETEPAGYVLKAANEAEKSANITIIDVKAVGAFGRLTLAGKEGDVEEAAAAAIRAIDQISNY | soluble
MSYYHHHHHHLESTSLYKKAGLENLYFQGVRQYKIHTNLDGTDDKVWDVTNGKVRFYQPSNLGLQSTNNIWQSNGIGVMGTRSITQPQIEFKLETFGESLEENYQLMKDFVNDILSKKFVTLEYQTEIFQVYADLALADVTKTEGYGKNGTFSEKITFDIITKWYTYENLTFDKIQNGKVIAGMSKIYGGTAPGNYKYIKGTSYTYYGESDIDRLSRWDIKEEIFSFMGILYPKLPKTPAGVRFLDDIGNEYTAIVFKTEQVQDYILINTDVNDETYQGWKGTTALNLFPVMDFERYRTRIIEKGQMELINLSKAEFKIKRKADFV | soluble
MSYYHHHHHHLESTSLYKKAGLVQRITIAPQGPEFSRFVMGYWRLMDWNMSARQLVSFIEEHLDLGVTTVDHADIYGGYQCEAAFGEALKLAPHLRERMEIVSKCGIATTAREENVIGHYITDRDHIIKSAEQSLINLATDHLDLLLIHRPDPLMDADEVADAFKHLHQSGKVRHFGVSNFTPAQFALLQSRLPFTLATNQVEISPVHQPLLLDGTLDQLQQLRVRPMAWSCLGGGRLFNDDYFQPLRDELAVVAEELNAGSIEQVVNAWVLRLPSQPLPIIGSGKIERVRAAVEAETLKMTRQQWFRIRKAALGYDVP | soluble
MTADANKSESLLCMDKAREAIKSGDTDKARRMLLKAKKLDPGQNIEFLTKKIDDMTNNTSSSSQTSSSRASEERSYAHDDHYDDPNLRNRKARSPVKKNGKTEPEPKQRSASRTPKLGVDYTSEQKELVERIRHCKDYYEILKIDKKASDDDIRKEYRKLALKLHPDKCRAPHATEAFKALGNAYAVLSDTDK | not soluble
MTAHPPRPELQIDIVSDVVCPWCIVGFRQLDQALAATGVLARLRWHPFELNPQMGPEGQNLREHIMEKYGSTPEQSAEARARLTAIGAELGFTFNFTDDSRIVNTFAAHQLLDWAEGQGRQHPLKQALFAAYFTDGRDVSDLSVLLDAVEAAGLDREAAQTALTSGAHQAPVREKQKFWAQHGISGVPSMVFGGKYLLTGAQGADTYAQVIQRCLAEAA | not soluble
MTAILLHNVAKSYRSYDHPWETLWEVFTKTRRHREWTALHPLSLEIAHGEVVGIVGTNGAGKSTLLKLIAGTLTPSAGDIRVNGHVAALLELGAGFHPDMTGRENVYLGASVMGLSSERVDRLYDGIVEFAGLGEFMDQPVKTYSSGMYMRLAFAVATAADPDVLILDEALSVGDGAFARKSFERIIGYKDAGKTILFCSHSLYQVEAICSRVLWLDHGRLVMDGEPARVVSAYAEFLGGGGEGCGTPDQPAPAAVAGSGVGRLTKVEVEADGVEGRKLTVRSGQTDLTVAVGFASDPALPPPSVGLTITGSNGWAVTSASTSNDGLTISRRPDGSGEVELSFPRFPLLKGAYWVNVFLLCEQGIHLYDRIEHAAELEVVQDGLEQGVVSLPRRWSVNGAPASAVSPTVPTVAAWLEHHHHHH | not soluble
MTAKPTVFVVDDDMSVREGLRNLLRSAGFEVETFDCASTFLEHRRPEQHGCLVLDMRMPGMSGIELQEQLTAISDGIPIVFITAHGDIPMTVRAMKAGAIEFLPKPFEEQALLDAIEQGLQLNAERRQARETQDQLEQLFSSLTGREQQVLQLTIRGLMNKQIAGELGIAEVTVKVHRHNIMQKLNVRSLANLVHLVEKYESFERGVS | soluble
MTAQKMSAQEIIAFIGNAEKKTNVKVTFEGELATAVPSSVTKLGNVLFGDWKDIEPLLANLTENKDYVVEQDGRNSAVPLLDK | not soluble
MTARDFLEFRERLAPASGFQSAQLREIEILLGLEDTQRISIGNGCSYRDALKLPGGAPSSSAQRVEARAADGPSFKHCLYDWLSRVPIDGSNAPADITRFLEAYLASLRAENDRRLKLASSGLAAAEIEQLRARYAAEDAGAQAFLLAEDDPQASDAERETRRAGRAAMLFIESYRELPQLAWPHALLESVLELEQAMLIWRQRHARMVERFIGRRIGTGGSSGVDYLDQTARYRIFTELWTVRSLLLRKAAVPQIRSSAGYGFVMEGFALEHHHHHH | not soluble
MTARIYKPAKNAMQSGTAKTREWQLDYEPETPRTIEPLMGWTSSSDMQQQVSLRFHTRDEAVAYCEREGIPYQLIEPKEPVRRRAAYADNFAFRRPEPWTHLEHHHHHH | not soluble
MTARPDTAIVLAAGLGKRMRPITDTIPKPLVRIAGKTLLDWGLDSLAAAGVAKAVVNVHYLPEQIVAHVAARSAPRIVISDESDRLLDSAGGIVKALPELGEQPFYILNADTFWIDHGPLNLGRLALAWDAAKMDILLMLADLHQATGHCGSTDFLVAPDGALRRSKGDPAGLIYAGAAIIHPRLFKDASAEPHSLNAYFDKAIAAGRLFGMPMHGHWITVGTPDAIPLAEEAVAGALAEMQLEHHHHHH | not soluble
MTDEAFAQADPEWLALIRAAREWLSGPLGQLLLEEERRVLDEELGRYFGGYLVHYGPSAQNPPVAPQVQRNVRLGAPLPGVEIVCEEQAWPLSEHAADVVVLQHGLDFCLSPHGLLREAASSVRPGGHLLIIGINPWSAWGVRHVFARDALRKARCISSSRVADWLNLLGFALEKRRFGCYRPPLASAAWQSRLAGLESLGEGRQSPGGGFYLLVARKLVVGLRPLRQVRRDPIGKLIPMPMAKVSRNTQDCS | not soluble
MTDHSNTRVVVGMSGGVDSSVVALLLKQQGYDVVGVFMKNWDDTDENGVCTATEDYKDVAKVADKIGIPYYSINFEKEYWDRVFTYFLDEYKKGRTPNPDVICNKEIKFKAFLDYAMDLGADYIATGHYARLQHDEDGTMHLLRGVDSNKDQTYFLSQLDSKTLQKVMFPLGEMVKPDVRKLALNAGLATAKKKDSVGICFIGEKNFKEFLGHYLPATPGKMMTFDGQVKGEHAGLMYYTIGQRRGLGIGGDGEDNEPWFVVGKDLKKNILYVGKGYHNPHLYATHLKASDLHFVTDEDLGNDFHVTAKFRYRQKDSGVTVHFNDDHTEVTVTFDDPVRAITPGQAVVFYNGEECLGSGMIDAAYNDERVLQYVLEHHHHHH | not soluble
MTDMTYTIALMGNPNTGKSTLFNVLTGLRQHTGNWPGKTVTHAEGECRHRGTLYRIVDLPGTYSLYSNSADEEVARDFLLFQRPDVTIVVVDATALERNLNLALQVLEMTDRVIIAINLMDEAKKKGIHINTKKLAAKLGVPVVPISARNREGIDALLDTVDAMAHGRINTNPLSIRYSPEIERGIAKLLPLVKDVMGDTYPARWIALRLLDGDTSLLQALKQPPQPLIKEGNAYACCGSVKSV | not soluble
MTDNSQFHAASALVQAAHTVSVVGHLRPDADAIGSVAATVAALQQLGKDAVGAIGQLDSMPENLYTIPGASNIKFGDSLPESDLIIVVDCGSIERTGAFESIIVNNPDKVLVVDHHATNPGFGAVNLIDVEAESTTTILYDWFDAMSVQITPDIAHGLYAGLLTDTGCFRWGRPVMHDMAKELMEFGLDIRAISSALLDQTSVDDLRLVGQIVSRIELREAGPYTLAVLVADFDTINGRSRAVVEGLIEMVRAVEGADFGAVFKEYERGVYTVSLRSSNLSVASLAVHLGGGGHIPAAGYTARGTEIEALDTLIEATVTLGESLRSSAHVDVLEHHHHHH | soluble
MTDQIKTDNARSKAEQLPLAFSHQSASGREDLLVSASLAAAVSLVDEWPNWPSPVVVLAGPPGSGKSHLANIWKNISDARDIHPEAGADAARAAETGPVLFEDADRRGFDDTELFHVINSVRQHGTTLLMTSRQWPAAWPVTLPDLRSRLKAVTVVETGEPDEGLLAQVLVKLFADRQLYMDDKLIGYIVNRMERSLDTAQTIVEQIDHLALSRATRITRPLVAEVLNAMDKAAAGDGSDID | not soluble
MTDQPDLFGLAPDAPRPIIPANLPEDWQEALLPEFSAPYFHELTDFLRQERKEYTIYPPAPDVFNALRYTPLGEVKVLILGQDPYHGPNQAHGLSFSVRPGVRVPPSLRNIYKELTEDIPGFVAPKHGYLRSWAEQGVLLLNAVLTVRAGQANSHQGKGWEHFTDAVIKAVNAKEERVVFILWGSYARKKKKLITGKNHVVIESGHPSPLSEQYFFGTRPFSKTNEALEKAGRGPVEWQLPATVTEE | soluble
MTDRYTIHSQLEHLQSKYIGTGHADTTKWEWLVNQHRDSYCSYMGHFDLLNYFAIAENESKARVRFNLMEKMLQPCGPPADKPEEN | soluble
MTDSKYDYSDITPVDINTEEPQICQILYDEDYKQIMGLLLALMKAEEYSERALHITELGINELASHYTIWIYRFNILKNLPNRNLYDELDWCEEIALDNEKNYQIWNYRQLIIGQIMELNNNDFDPYREFDILEAMLSSDPKNHHVWSYRKWLVDTFDLHNDAKELSFVDKVIDTDLKNNSAWSHRFFLLFSKKHLATDNTIDEELNYVKDKIVKCPQNPSTWNYLLGIHERFDRSITQLEEFSLQFVDLEKDQVTSSFALETLAKIYTQQKKYNESRTVYDLLKSKYNPIRSNFWDYQISKLTSV | soluble
MTEAQLTLPTTKLSPTQKTQFIKLEKKLRRNVGQAIAQYNMIEDGDKVMVCLSGGKDSYAMLSILMLLKESAPIHFDIIAVNLDQKQPGFPEHILPEYLDKLGIEYHIVEEDTYGIVKEKVPEGKTTCSLCSRLRRAVLYKAAKKIGATKIALGHHRDDMIETLMLNMFYGGKMKAMPAKLVSDNGEHVVIRPLAFCKESELIQYSELKHFPIIPCNL | not soluble
